Measured values as given in paper PMC8517123, “Functional Interaction Between Caveolin 1 and LRRC8-Mediated Volume-Regulated Anion Channel” (Frontiers in Physiology, 2021).

Biological target: T1, Leucine-rich repeat-containing 8A (human (endogenous in HEK 293), UniProt Q8IWT6 1-810)
T1 construct: LRRC8A, essential subunit of the volume-regulated anion channel (VRAC), endogenous in HEK 293 cells; Endogenous protein in lysate; in cells it is part of heteromeric LRRC8 channels, and other subunits may be present in the precipitate; also called LRRC8A; source: endogenous, HEK 293 lysate (1% Triton X-100)
T1 sequence (looked up): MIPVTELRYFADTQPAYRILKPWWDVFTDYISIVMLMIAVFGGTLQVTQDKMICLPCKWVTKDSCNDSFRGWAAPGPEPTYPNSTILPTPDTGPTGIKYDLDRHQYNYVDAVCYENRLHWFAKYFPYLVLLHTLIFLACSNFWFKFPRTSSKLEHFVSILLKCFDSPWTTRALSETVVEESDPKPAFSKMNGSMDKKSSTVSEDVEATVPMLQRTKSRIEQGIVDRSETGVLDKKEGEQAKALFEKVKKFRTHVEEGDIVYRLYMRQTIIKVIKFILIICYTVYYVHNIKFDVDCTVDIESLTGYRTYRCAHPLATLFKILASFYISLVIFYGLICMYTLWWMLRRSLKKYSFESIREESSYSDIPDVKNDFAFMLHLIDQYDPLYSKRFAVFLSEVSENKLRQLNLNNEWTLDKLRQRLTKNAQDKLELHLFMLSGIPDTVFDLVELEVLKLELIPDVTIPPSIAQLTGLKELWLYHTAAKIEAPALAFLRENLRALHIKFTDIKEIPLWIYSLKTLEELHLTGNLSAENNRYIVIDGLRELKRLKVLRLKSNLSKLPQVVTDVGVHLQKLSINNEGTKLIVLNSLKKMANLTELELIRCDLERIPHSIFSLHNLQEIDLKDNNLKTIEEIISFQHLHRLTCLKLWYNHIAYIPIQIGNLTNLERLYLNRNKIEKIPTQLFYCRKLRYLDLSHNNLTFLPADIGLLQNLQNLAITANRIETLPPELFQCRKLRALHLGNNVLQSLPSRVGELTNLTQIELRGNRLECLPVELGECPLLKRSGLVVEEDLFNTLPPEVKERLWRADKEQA
Experiment: co-IP; endogenous proteins; HEK 293 cells exposed to isotonic (300 mOsm/Kg) or hypotonic (255 mOsm/Kg) solution for 7 min at 37°C; lysis in 1% Triton X-100; 100-500 μg protein with 2-4 μg anti-Cav1 or anti-LRRC8A antibody at 4°C overnight, protein A sepharose; western blot
Conditions: partners not purified

B1: Caveolin 1 (natural protein, human (endogenous in HEK 293), UniProt Q03135 1-178, looked up)
chain: MSGGKYVDSEGHLYTVPIREQGNIYKPNNKAMADELSEKQVYDAHTKEIDLVNRDPKHLNDDVVKIDFEDVIAEPEGTHSFDGIWKASFTTFTVTKYWFYRLLSALFGIPMALIWGIYFAILSFLHIWAVVPCIKSFLIEIQCISRVYSIYVHTVCDPLFEAVGKIFSNVRINLQKEI
notes: Caveolin 1, endogenous in HEK 293 cells; also called Cav1; source: endogenous, HEK 293 lysate (1% Triton X-100)
  LRRC8A/Cav1 ratio, hypotonic vs. isotonic (densitometry of co-IP): 2.2 ratio
